Experiment [1] has as its target HLA-A*02:01/hβ2m (human).
Experiment [2] has as its target HLA-A*02:01/hβ2m (human). Briefly: in vitro refolding + SEC.
Experiment [3] has as its target HLA-B*08:01/hβ2m (human). Briefly: in vitro refolding + SEC.
The target of experiment [4] is HLA-E*01:03/hβ2m (human).
For experiment [5], the target named is HLA-B*08:01/hβ2m (human).
The target in experiment [6] is HLA-E*01:03/hβ2m (human). The source holds these as a separate data set.
In experiment [7] the target is HLA-E*01:03/hβ2m (human). Nature of the experiment: in vitro refolding + SEC.

As to MSP1 511–520 (…) (peptide), in the experiment with HLA-A*02:01/hβ2m (human) [1], the nanoDSF melting temperature (Tm) of the refolded peptide/HLA/hβ2m complex was determined as 51.6 °C. Further, the values for the apparent refolding yield (%) with HLA-A*02:01/hβ2m (human) [2] and in the experiment with HLA-B*08:01/hβ2m (human) [3] were 19% and 44.4%, respectively.
In the case of MSP1 643–652 (…) (peptide), in the experiment with HLA-E*01:03/hβ2m (human) [4], the nanoDSF melting temperature of a minor population of the refolded complex worked out at 63 °C. Besides, the results for the nanoDSF melting temperature (Tm) of the refolded peptide/HLA/hβ2m complex with HLA-B*08:01/hβ2m (human) [5] and in the experiment with HLA-E*01:03/hβ2m (human) [6] were 52.9 °C and 38.4 °C, respectively. The apparent refolding yield (%) in the experiment with HLA-B*08:01/hβ2m (human) [3] amounted to 32.6%; with HLA-E*01:03/hβ2m (human) [7], 8%.
Regarding SSFP 93–102 (…) (peptide), the results for the nanoDSF melting temperature (Tm) of the refolded peptide/HLA/hβ2m complex in the experiment with HLA-A*02:01/hβ2m (human) [1] and with HLA-B*08:01/hβ2m (human) [5] were 52.5 °C and 56.3 °C, respectively. The apparent refolding yield (%) in the experiment with HLA-A*02:01/hβ2m (human) [2] was found to be 27.1%; in the experiment with HLA-B*08:01/hβ2m (human) [3], 51.1%.
In the same order, the values of LSA3 78–87 (…) (peptide) are 52.5 °C, 56.3 °C, 13.5% and 14.7%.
Consider MSP1 823–832 (…) (peptide), for which the nanoDSF melting temperature (Tm) of the refolded peptide/HLA/hβ2m complex came to 63.2 °C with HLA-A*02:01/hβ2m (human) [1] and 52.6 °C with HLA-B*08:01/hβ2m (human) [5]. Also, in the experiment with HLA-B*08:01/hβ2m (human) [3], the apparent refolding yield (%) was 12.5%.
On the same counts, the results for MSP1 880–889 (…) (peptide) are 53.6 °C, 51.6 °C and 63.3%.
For LSA3 1229–1238 (…) (peptide), the nanoDSF melting temperature (Tm) of the refolded peptide/HLA/hβ2m complex was 58.4 °C with HLA-A*02:01/hβ2m (human) [1], 60.5 °C in the experiment with HLA-B*08:01/hβ2m (human) [5] and 61 °C with HLA-E*01:03/hβ2m (human) [6]. The apparent refolding yield (%) with HLA-A*02:01/hβ2m (human) [2] turned out to be 24.6%; with HLA-B*08:01/hβ2m (human) [3], 47.6%; with HLA-E*01:03/hβ2m (human) [7], 38.1%.

The values are drawn from paper PMC11903679.
